Measurements taken from PMC5281607.

Test: whole-cell patch clamp, AITC amplitude and rectification
Details: glycan lost; control: vehicle-treated (untreated) cells

B1: TRPA1: tunicamycin 5 μg/ml, 24 h (protein)
parent chain: MKRSLRKMWRPGEKKEPQGVVYEDVPDDTEDFKESLKVVFEGSAYGLQNFNKQKKLKRCDDMDTFFLHYAAAEGQIELMEKITRDSSLEVLHEMDDYGNTPLHCAVEKNQIESVKFLLSRGANPNLRNFNMMAPLHIAVQGMNNEVMKVLLEHRTIDVNLEGENGNTAVIIACTTNNSEALQILLKKGAKPCKSNKWGCFPIHQAAFSGSKECMEIILRFGEEHGYSRQLHINFMNNGKATPLHLAVQNGDLEMIKMCLDNGAQIDPVEKGRCTAIHFAATQGATEIVKLMISSYSGSVDIVNTTDGCHETMLHRASLFDHHELADYLISVGADINKIDSEGRSPLILATASASWNIVNLLLSKGAQVDIKDNFGRNFLHLTVQQPYGLKNLRPEFMQMQQIKELVMDEDNDGCTPLHYACRQGGPGSVNNLLGFNVSIHSKSKDKKSPLHFAASYGRINTCQRLLQDISDTRLLNEGDLHGMTPLHLAAKNGHDKVVQLLLKKGALFLSDHNGWTALHHASMGGYTQTMKVILDTNLKCTDRLDEDGNTALHFAAREGHAKAVALLLSHNADIVLNKQQASFLHLALHNKRKEVVLTIIRSKRWDECLKIFSHNSPGNKCPITEMIEYLPECMKVLLDFCMLHSTEDKSCRDYYIEYNFKYLQCPLEFTKKTPTQDVIYEPLTALNAMVQNNRIELLNHPVCKEYLLMKWLAYGFRAHMMNLGSYCLGLIPMTILVVNIKPGMAFNSTGIINETSDHSEILDTTNSYLIKTCMILVFLSSIFGYCKEAGQIFQQKRNYFMDISNVLEWIIYTTGIIFVLPLFVEIPAHLQWQCGAIAVYFYWMNFLLYLQRFENCGIFIVMLEVILKTLLRSTVVFIFLLLAFGLSFYILLNLQDPFSSPLLSIIQTFSMMLGDINYRESFLEPYLRNELAHPVLSFAQLVSFTIFVPIVLMNLLIGLAVGDIAEVQKHASLKRIAMQVELHTSLEKKLPLWFLRKVDQKSTIVYPNKPRSGGMLFHIFCFLFCTGEIRQEIPNADKSLEMEILKQKYRLKDLTFLLEKQHELIKLIIQKMEIISETEDDDSHCSFQDRFKKEQMEQRNSRWNTVLRAVKAKTHHLEP
  other: channel current: no change
